Data published in US20130224187A1 (Alexion, published 2013).

B1: 5an180ME (antibody, V domains shown)
VH: EVQLQQPGAEIVRPGASVKLSCRASGYTFTDYWMNWVKQRPGQGLEWIGTIDPSDSYTIYNQKFKGKATLTVDTSSTTAYIQLSSLTSEDSAVYFCARGEDYDVSSYTMDYWGQGTSVTVSS
VL: DIQMTQSPASLSASVGETVTITCRASENIYSYLAWYQQKQGKSPQLLVYNAKTLAEGVPSRFSGSGSGTQFSLKINSLQPEDFGSYYCQHHYGTPYTFGGGTKLEIKR
notes: Full length mouse IgG2a
B2: BNJ383 (antibody, human IgG2, kappa, V domains shown)
VH: QVQLVQSGAEVKKPGASVKVSCKASGYTFTDYSMDWVRQAPGQGLEWMGAIHLNTGYTNYNQKFKGRVTMTRDTSTSTVYMELSSLRSEDTAVYYCARGFYDGYSPMDYWGQGTTVTVSS
VL: DIQMTQSPSSLSASVGDRVTITCRASESVDSYGNSFMHWYQQKPGKAPKLLIYRASNLESGVPSRFSGSGSGTDFTLTISSLQPEDFATYYCQQSNEDPYTFGGGTKVEIKR
notes: Humanized bivalent full length IgG; also called anti-hC5a antibody

Experiments:
human C5a = molecular target: T1, human C5a (human, UniProt P01031 678-751); assay: Biolayer interferometry (Octet)
T1 construct: also called hC5a; free human C5a
T1 sequence: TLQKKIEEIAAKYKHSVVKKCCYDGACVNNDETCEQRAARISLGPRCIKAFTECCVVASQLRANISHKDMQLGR

human full-length C5 = molecular target: T2, human full-length C5 (human, UniProt P01031 19-673; P01031 678-1676); assay: Biolayer interferometry (Octet); biotinylated antigen on streptavidin tip, IgG in solution
T2 construct: mature; also called uncleaved human C5; native, fully-folded human C5
Method: (§1) These antibodies were evaluated for specificity using Biolayer Interferometry on an Octet (ForteBio Inc.).

human C3a = molecular target: T3, human C3a (human, UniProt P01024 672-748); assay: as above
T3 construct: domain: C3a
Method: as §1

human C4a = molecular target: T4, human C4a (human, UniProt P0C0L4 680-756); assay: as above
T4 construct: domain: C4a
T4 sequence (looked up): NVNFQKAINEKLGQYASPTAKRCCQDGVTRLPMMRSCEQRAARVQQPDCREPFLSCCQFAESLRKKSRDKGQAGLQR
Method: as §1

human C5a desarg = molecular target: T5, human C5a desarg (human, UniProt P01031 678-750); assay: Biolayer interferometry (Octet); biotinylated antigen on streptavidin tip, 20 nM IgG in solution
T5 construct: also called desarginated C5a; hC5a desarg
T5 sequence: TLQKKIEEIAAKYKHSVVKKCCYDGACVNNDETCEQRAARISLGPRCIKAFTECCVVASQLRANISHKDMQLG
Method: as §1

cynomolgus macaque C5a = molecular target: T6, cynomolgus macaque C5a (cynomolgus macaque); assay: SPR (Biacore); antibody captured by anti-human Fc on CM5 chip, recombinant cynomolgus C5a 0.6-5.9 nM as analyte; 1:1 Langmuir fit
T6 construct: also called recombinant cynomolgus macaque C5a; cynomolgus C5a
T6 chain: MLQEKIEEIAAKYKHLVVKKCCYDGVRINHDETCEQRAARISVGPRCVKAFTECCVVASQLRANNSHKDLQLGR
Method: The surface was regenerated with 20 mM HCl, 0.02% surfactant P20 (Biacore) after each cycle to remove bound antibody and antigen. The data was evaluated using Biacore BlAevaluation software using a 1:1 Langmuir Model Fit (Rmax:Global Fit; R1:Local Fit). These experiments were for screening purposes with a minimal number of analyte concentrations (3 to 4) with 1 duplicate.

mouse C5a = molecular target: T7, mouse C5a (mouse, UniProt P06684 683-755); assay: SPR (Biacore); antibody captured by anti-human Fc on CM5 chip, recombinant mouse C5a 0.6-5.9 nM as analyte; 1:1 Langmuir fit; footnote: only an approximation of the KD
T7 construct: also called recombinant mouse C5a
T7 sequence: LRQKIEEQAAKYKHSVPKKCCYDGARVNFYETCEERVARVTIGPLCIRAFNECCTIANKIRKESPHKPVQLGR
Method: The surface was regenerated with 20 mM HCl, 0.02% P20 after each cycle to remove bound antibody and antigen. The data were evaluated using Biacore BlAevaluation software using a 1:1 Langmuir Model Fit (Rmax:Global Fit; R1:Local Fit).

T2 sequence (P01031 19-673 limits assumed, one chain of several): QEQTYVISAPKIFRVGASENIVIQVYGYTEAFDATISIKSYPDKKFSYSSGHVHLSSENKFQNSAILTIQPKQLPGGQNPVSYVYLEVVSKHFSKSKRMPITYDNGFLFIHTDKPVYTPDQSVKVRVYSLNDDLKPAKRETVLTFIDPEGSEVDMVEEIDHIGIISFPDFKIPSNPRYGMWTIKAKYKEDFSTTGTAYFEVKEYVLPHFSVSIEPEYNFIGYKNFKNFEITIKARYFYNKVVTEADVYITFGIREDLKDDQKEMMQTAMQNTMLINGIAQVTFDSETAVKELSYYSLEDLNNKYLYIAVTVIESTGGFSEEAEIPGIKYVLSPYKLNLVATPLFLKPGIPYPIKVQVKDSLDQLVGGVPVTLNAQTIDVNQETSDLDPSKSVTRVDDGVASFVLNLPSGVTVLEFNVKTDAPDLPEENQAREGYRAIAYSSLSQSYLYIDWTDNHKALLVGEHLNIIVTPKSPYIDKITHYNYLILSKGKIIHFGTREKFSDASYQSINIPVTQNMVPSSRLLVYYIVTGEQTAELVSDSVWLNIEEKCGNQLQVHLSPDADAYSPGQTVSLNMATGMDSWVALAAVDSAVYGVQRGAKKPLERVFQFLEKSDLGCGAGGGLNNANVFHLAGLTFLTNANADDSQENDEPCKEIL
T3 sequence (P01024 672-748 limits assumed): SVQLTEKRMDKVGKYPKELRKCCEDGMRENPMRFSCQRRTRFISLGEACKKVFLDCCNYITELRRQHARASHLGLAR

Binder	binding result (human C5a)	binding result (human full-length C5)	binding result (human C3a)	binding result (human C4a)	binding result (human C5a desarg)	Kd (cynomolgus macaque C5a)	Kd (mouse C5a)
B1	binds	no binding (tested: 20 nM)	no binding (tested: 20 nM)	no binding (tested: 20 nM)	binds	–	–
B2	–	–	–	–	–	3.3 nM	~0.379 nM
